Laboratory results taken from publication PMC10300371, “Categorization of Escherichia coli outer membrane proteins by dependence on accessory proteins of the β-barrel assembly machinery complex” (The Journal of Biological Chemistry, 2023).

B1: LamB (natural protein, E. coli, UniProt P02943 26-446, looked up)
chain: VDFHGYARSGIGWTGSGGEQQCFQTTGAQSKYRLGNECETYAELKLGQEVWKEGDKSFYFDTNVAYSVAQQNDWEATDPAFREANVQGKNLIEWLPGSTIWAGKRFYQRHDVHMIDFYYWDISGPGAGLENIDVGFGKLSLAATRSSEAGGSSSFASNNIYDYTNETANDVFDVRLAQMEINPGGTLELGVDYGRANLRDNYRLVDGASKDGWLFTAEHTQSVLKGFNKFVVQYATDSMTSQGKGLSQGSGVAFDNEKFAYNINNNGHMLRILDHGAISMGDNWDMMYVGMYQDINWDNDNGTKWWTVGIRPMYKWTPIMSTVMEIGYDNVESQRTGDKNNQYKITLAQQWQAGDSIWSRPAIRVFATYAKWDEKWGYDYTGNADNNANFGKAVPADFNGGSFGRGDSDEWTFGAQMEIWW
modifications: 35S-methionine and 35S-cysteine (radiolabel)
notes: Made as a monomer and seen as a trimer after assembly into EMM; also called 35S-labeled LamB; maltoporin; source: in vitro translated, rabbit reticulocyte lysate (Promega), 35S-labelled; assembled into EMM
B2: OmpC (natural protein, E. coli, UniProt P06996 22-367, looked up)
chain: AEVYNKDGNKLDLYGKVDGLHYFSDNKDVDGDQTYMRLGFKGETQVTDQLTGYGQWEYQIQGNSAENENNSWTRVAFAGLKFQDVGSFDYGRNYGVVYDVTSWTDVLPEFGGDTYGSDNFMQQRGNGFATYRNTDFFGLVDGLNFAVQYQGKNGNPSGEGFTSGVTNNGRDALRQNGDGVGGSITYDYEGFGIGGAISSSKRTDAQNTAAYIGNGDRAETYTGGLKYDANNIYLAAQYTQTYNATRVGSLGWANKAQNFEAVAQYQFDFGLRPSLAYLQSKGKNLGRGYDDEDILKYVDVGATYYFNKNMSTYVDYKINLLDDNQFTRDAGINTDNIVALGLVYQF
modifications: 35S-methionine and 35S-cysteine (radiolabel)
notes: Made as a monomer and seen as a trimer after assembly into EMM; also called 35S-labeled OmpC; major porin; source: in vitro translated, rabbit reticulocyte lysate (Promega), 35S-labelled; assembled into EMM
B3: OmpF (natural protein, E. coli, UniProt P02931 23-362, looked up)
chain: AEIYNKDGNKVDLYGKAVGLHYFSKGNGENSYGGNGDMTYARLGFKGETQINSDLTGYGQWEYNFQGNNSEGADAQTGNKTRLAFAGLKYADVGSFDYGRNYGVVYDALGYTDMLPEFGGDTAYSDDFFVGRVGGVATYRNSNFFGLVDGLNFAVQYLGKNERDTARRSNGDGVGGSISYEYEGFGIVGAYGAADRTNLQEAQPLGNGKKAEQWATGLKYDANNIYLAANYGETRNATPITNKFTNTSGFANKTQDVLLVAQYQFDFGLRPSIAYTKSKAKDVEGIGDVDLVNYFEVGATYYFNKNMSTYVDYIINQIDSDNKLGVGSDDTVAVGIVYQF
modifications: 35S-methionine and 35S-cysteine (radiolabel)
notes: Made as a monomer and seen as a trimer after assembly into EMM; also called 35S-labeled OmpF; major porin; source: in vitro translated, rabbit reticulocyte lysate (Promega), 35S-labelled; assembled into EMM

Target: the molecule itself
Assay: native gel or EMSA; 35S-labelled protein incubated with EMM at 30 °C for 10 to 90 min, EMM solubilised in 1.5% DDM, BN-PAGE and radioimaging; monomer to trimer

Stoichiometry N, 3:
B1, B2, B3
